Experimental data taken from US20070248602A1.

How the values were obtained:
[1] = molecular target: human FcγRIIIa (FIG. 41 data; allotype not given) (human) (UniProt P08637); test: AlphaScreen competition
[2] = molecular target: FcγRIIIa on human PBMCs expressing heterozygous V158/F158 FcγRIIIa (human) (UniProt P08637); test: cell-based or functional assay
Sequence of FcγRIIIa on human PBMCs expressing heterozygous V158/F158 FcγRIIIa (human) (P08637 17-254): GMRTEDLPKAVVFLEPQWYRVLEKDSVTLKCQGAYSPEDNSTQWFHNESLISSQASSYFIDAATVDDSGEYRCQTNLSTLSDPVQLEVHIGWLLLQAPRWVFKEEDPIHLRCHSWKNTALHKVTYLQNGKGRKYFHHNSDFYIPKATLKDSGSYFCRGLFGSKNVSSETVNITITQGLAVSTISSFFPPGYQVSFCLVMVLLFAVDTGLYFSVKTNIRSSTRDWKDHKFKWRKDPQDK

Sequence of human FcγRIIIa (FIG. 41 data; allotype not given) (human) (P08637 17-208): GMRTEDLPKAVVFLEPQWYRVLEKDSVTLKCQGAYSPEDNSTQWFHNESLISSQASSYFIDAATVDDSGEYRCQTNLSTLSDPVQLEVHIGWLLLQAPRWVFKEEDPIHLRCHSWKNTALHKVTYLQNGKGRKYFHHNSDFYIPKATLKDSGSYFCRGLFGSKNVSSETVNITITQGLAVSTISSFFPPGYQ

FcγRIIIa-fold [1] [fold]	FcγRIIIa-fold:FcγRIIb-fold [1]	ADCC EC50, DoHH-2 target cells [2] [ng/mL]	ADCC Fold WT, DoHH-2 target cells [2] [fold]	ADCC log(EC50), DoHH-2 target cells [2]	Substance
139	18				S239D/A330L/I332E Fc variant (FIG. 41 data, antibody context not told in the text)
192					S239D/I332E Fc variant (FIG. 41 data, antibody context not told in the text)
		3	3.3	0.49	S239D/I332E alemtuzumab (antibody)
		4		0.6	V264I/I332E alemtuzumab (antibody)
